3 molecules from patent US20220380421A1 (University of California, published 2022) can be followed below.

The target in test [1] is T1, Myc-tagged SpyCas9-sgRNA (Streptococcus pyogenes, UniProt Q99ZW2 1-1368).
T1 construct: not shown: 3xMyc tag at the C-terminus
The experiment in a line: discussion of the co-immunoprecipitation results; state of SpyCas9 not named there.

In another test the target is T2, Myc-tagged Apo-SpyCas9 (Streptococcus pyogenes, UniProt Q99ZW2 1-1368).
T2 construct: not shown: 3xMyc tag at the C-terminus
T2 sequence (Q99ZW2 whole entry): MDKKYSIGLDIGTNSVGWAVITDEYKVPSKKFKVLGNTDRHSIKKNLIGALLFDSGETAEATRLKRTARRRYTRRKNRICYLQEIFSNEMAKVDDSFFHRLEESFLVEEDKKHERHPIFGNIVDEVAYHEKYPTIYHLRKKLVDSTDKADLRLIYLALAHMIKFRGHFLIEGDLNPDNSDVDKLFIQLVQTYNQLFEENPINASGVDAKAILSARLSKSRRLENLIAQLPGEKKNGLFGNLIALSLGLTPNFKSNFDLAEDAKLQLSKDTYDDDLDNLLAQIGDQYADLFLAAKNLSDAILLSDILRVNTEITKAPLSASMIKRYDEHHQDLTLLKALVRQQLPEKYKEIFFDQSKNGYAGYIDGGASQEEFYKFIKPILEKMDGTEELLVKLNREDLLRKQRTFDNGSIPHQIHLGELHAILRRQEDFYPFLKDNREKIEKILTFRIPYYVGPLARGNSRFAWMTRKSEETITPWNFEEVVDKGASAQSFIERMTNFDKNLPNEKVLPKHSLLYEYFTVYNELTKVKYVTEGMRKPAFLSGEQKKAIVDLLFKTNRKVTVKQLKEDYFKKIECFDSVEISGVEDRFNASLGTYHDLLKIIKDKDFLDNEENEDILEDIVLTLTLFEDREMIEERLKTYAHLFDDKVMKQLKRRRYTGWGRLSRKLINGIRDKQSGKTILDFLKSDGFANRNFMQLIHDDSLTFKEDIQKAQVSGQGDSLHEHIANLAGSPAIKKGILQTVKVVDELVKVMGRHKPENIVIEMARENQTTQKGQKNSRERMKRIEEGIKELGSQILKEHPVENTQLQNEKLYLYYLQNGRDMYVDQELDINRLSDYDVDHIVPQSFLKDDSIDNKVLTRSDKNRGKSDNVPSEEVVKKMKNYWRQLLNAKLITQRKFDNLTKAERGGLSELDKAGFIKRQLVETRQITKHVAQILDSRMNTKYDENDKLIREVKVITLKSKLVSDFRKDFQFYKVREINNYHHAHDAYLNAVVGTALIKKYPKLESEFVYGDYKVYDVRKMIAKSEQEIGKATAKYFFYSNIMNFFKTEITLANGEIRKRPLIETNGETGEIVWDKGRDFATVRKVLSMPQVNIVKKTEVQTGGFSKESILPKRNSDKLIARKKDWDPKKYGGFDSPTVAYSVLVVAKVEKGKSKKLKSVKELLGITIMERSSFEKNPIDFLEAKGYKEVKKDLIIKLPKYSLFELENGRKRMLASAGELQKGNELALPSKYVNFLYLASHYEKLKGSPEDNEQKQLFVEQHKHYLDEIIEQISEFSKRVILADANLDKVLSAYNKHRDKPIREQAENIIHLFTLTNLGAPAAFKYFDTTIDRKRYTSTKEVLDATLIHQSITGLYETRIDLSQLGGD
Kind of test: GST-Acr immunoprecipitation from P. aeruginosa expressing Myc-tagged Apo-SpyCas9 without sgRNA; immunoblot (FIGS. 3D, 7C). A general note: A western blot detects proteins with antibodies after separation by electrophoresis.

Test [2] has as its target T1, Myc-tagged SpyCas9-sgRNA. The experiment in a line: co-immunoprecipitation of Myc-tagged SpyCas9-sgRNA from P. aeruginosa co-expressing GST-Acr; immunoblot and Coomassie gel (FIG. 3B).

T1 sequence (Q99ZW2 whole entry): as above

B1: GST-AcrIIA17_Sga (other)
chain: MKISVDSEKLLNEAINDFDIFGEDFNVYAIYSYREDYDFEYISDYVDADEPTRDEFETEEDYQEVMKDFKENLDSLKFTKHKKMTIADLVHELWEQNRIF
notes: also called GST-AcrIIA7_Sga
Regarding B1, the binding result with Myc-tagged SpyCas9-sgRNA [1] and with Myc-tagged Apo-SpyCas9 was “binds” in each case.

B2: GST-AcrIIA16_Lmo (other)
chain: MGYIGTKRSERSQDAIEDYEVPLNHFNKDLIQAFIDENEAYDTLKTKKVRLWKFVAPRAGATSWHHTGTYYNKTDHYSLEKVADELLQNGDEWEEQFKAYVKEEQETATSEPVFLSVIKVQIWGGSMKRPKLVGHEVVMGVKKEGWLHAVSKATQSKYKLSANKVEMQKHYSLEDYSALTKDFPEFKAQKRAINKKMKEMYN
As for B2, the binding result with Myc-tagged Apo-SpyCas9 and in the test with Myc-tagged SpyCas9-sgRNA [2] was “binds” in each case.

B3: GST-AcrIIA19_Ssim (other)
chain: MKLIVEVEETNYKNLVNYTKLTNESHNILVNRLISEYITKPYELRLDLSERYSNRDLIEFKFMLIEYCKEALQDIKELANSDEAYETDEAFEAVFRQLFEEVISNPDTVLKAFHSYTSFLEENK
In the case of B3, the binding result with Myc-tagged SpyCas9-sgRNA [1] and in the test with Myc-tagged Apo-SpyCas9 was “binds” in each case.
